A value given as a limit tells only on which side of the number the result lay.

In assay [1] the target is Respiratory Syncytial Virus fusion glycoprotein (RSV F) on RSV-A2 virus (Respiratory Syncytial Virus subtype A (RSV-A2)). Briefly: cell-based or functional assay.
For assay [2], the target named is RSV postfusion F (postF), F deltaFP (Respiratory Syncytial Virus). Briefly: BLI, IgG on anti-human IgG sensor, 100 nM antigen. A general note: In BLI a coated tip is dipped into the sample, and binding shifts an interference pattern.
Assay [3] concerns the target RSV prefusion F (preF), DS-Cav1 (Respiratory Syncytial Virus). Briefly: BLI, IgG on anti-human IgG sensor, 100 nM antigen.

B1: ADI-41231 (antibody, V domains shown)
VH: QVQLVQSGAEVKKPGESLKISCKGSGYSFTNNWVGWVRQMPGKGLEWMGIIFPGDSDTRYSPSFRGQVTISVDTSINTAFLQWNSLGASDTAMYYCAMTDYNYSFKSWGQGTLVTVSS
VL: NFMLTQPHSVSESPGKTITISCTRSSGNIGNNYVQWYQQRPGSSFTTVIYEDYQRPSGVPDRFSGSIDSSSNSATLTISGLKTEDEADYYCQSYDSSNPYVFGTGTKVTVL
What is called Kd is a measure of binding affinity in units of concentration. With B1, the Neutralization IC50 (RSV subtype A) in assay [1] was > 25 µg/mL. The equilibrium dissociation constant (Kd) in assay [2] was 0.426 nM; in assay [3] it was 3.05 nM.
